In the DeepSol protein solubility set:

assay: soluble on expression in E. coli; label from the status in PepcDB or PDB records

Soluble on expression in E. coli, not soluble:
MGSDKIHHHHHHMKNLFLFCRAGFEKECAAEIQQRAGELNVGGFVKANNNDAYVVYQCFEEDAADTLVKQLPLDSLIFARQMFAASDLLVDLPESDRISPIVAALSDVSKAGEVRVETPDTNEAKELSAFCRKFTVPLRQHLKKSGSLLAQENPKRPIIHVCFIGPGRAYVGYSYSNNSSPHFMGIPRLKMAADAPSRSSLKLDEAFGQFVPKEEQEERIRSGMNAVDLGACPGGWTYQLVRRGMFVSAVDNGPMDEKLMETGQVKHYREDGFRFEPQRKNIYWLVCDMVRPSSL
MGSDKIHHHHHHMKNLIFKDSQFEFQTLRVLGSSASGAADIGEVVETAQRIKEGDFKSWCDEWSKTAKSLEESAEESYSKGHFISAKKAYLRAANYYRTAEFYLHENPNNPIIGELYEKSLRCFSYVMKLNKPAIEAVKIPYENTFLPAHYYKLQNSNGKAPVLIAMTGYDGTKEEFYGLAMTALEHGMNFLTFEGPGQGEAVRKQKLFFRYDYEKVVTPVIDYVISRKEVDQAKIILWGESLGGYLAPRAAAFEHRLAACVANSGVYDFFGGILRELGNNSREEFFSAARINPEEFDKNIYSIAKLNSKVRWGIYHGMYVFGVNSPHEYILKAEDFYLKDIAEKIKCPTLVIDSDNDGILGGQSKPLYDVLRCKKEYMFFTSENGAGYHCQVGAKLIGWERILSWIEDIIK
MGSDKIHHHHHHMKNRIIEKIENALQTLKNGGLIIITDDENRESEGDMVGLAEYVTPKAVNTMVTNARGLLCVPMSAEIAQKLGLSPMVTNAEDAFGTAFTISTDAKTTKTGISAFDRAKTIQKLADPQAKFSEFYHPGHVFPLIAEEGGVLARGGHTEAAVDLAKLAGVRPVAYITEVLKKDGTMARRNTLKSLAEGMQMPLLTIEEIKIYRYMKDAGIVKSVAKVHLPTKYGEFEMEAFDTGAGQEPTLLLTKGSLSEVQPLLLRIHSECLTGDIFGSKRCDCGEQLERSLKEIQSRGRGALLYLRQEGRGIGLANKLKAYELQEQGMDTVEANLKLGFQADERHYGVAAAILRKKGITKVNLLTNNPDKIKQLETLGIKVEERVTIQIPARPENRSYLKVKKEKMHHLLKGMD
MGSDKIHHHHHHMKNTEIRKNIFPVGFYDDIHPDFSVNFQMNRCYTMTNDDVMLKEMREISPSIHNYEEFIEKFLELYNKALNEGHKLRAAYYLRTAEFYMTADHPQKQNYRKQFISLMQEYFNISDEQPYKVPYENGFLPAYRFTSEAPKGTIVMFGGFDSYVEEMFKMALFLKEAGYDVVFFDGPGQGSALEDYKIPMTHEWEKPVKSILDYFELDDVTLLGISLGGYLTVRAAAFEKRVHRVIADDILSNFYEVVLNTLPSQLKEKVNSLMSDGNEQEVNILFKDLMKKSLMVEWAINQGMHITGSKTPYEFLNKILLYNTSKISEKLEQDVLLMAAQEDHYIPLNQFFDQSKSLINVRSLTTRMFTRKETAQNHCQSGNLGLAFEVIANWIEQIQK
MGSDKIHHHHHHMKPALKSTPALRITLVCNTAWAIYTYRQGLIRMLVGRGVDVTVLAPRDRTFELLVAMGCRCIELPVASKGTSPRDDLRTLYALYRQYRSIRPHVVFHYTIKPNIYGSIAARLAGVQSVAVTTGLGYVFIQQSRAAQVAKKLYRFAFRFPREIWFLNRDDQAAFVEQNLLVHPERARLLHGEGVDLEQFAFTPLPERADYRFVLIGRLLWDKGVGEYVEAARRLRERYPHARFQLLGPVGVDNPSAITREEVAAWEREGIIEYLGEAHDVRPFIAEADCVVLPSYREGVPRTLMEASAMGRPIVTTDVPGCREVVADGVNGLLCEARNAASLAATLARMLDMSGAERRALAERGRKKVAEEFDERVVVEMYKDLVQKMTGVLL
MGSDKIHHHHHHMKPSIYSLTRNDLIAWTIEHGEKKFRATQIWDWLYRKRVQSFEEMTNLSKDFIALLNENFLVNPLKQRIVQESADGTVKYLFELPDGMLIETVLMRQHYGLSVCVTTQVGCNIGCTFCASGLIKKQRDLNNGEITAQIMLVQKYFDERGQGERISHVVVMGIGEPFDNYDNVLKFLRTINDDNGLAIGARHITVSTSGLAHKIRDFANEGVQVNLAVSLHAPNNELRSSIMRINRSFPLEKLFAAIEYYIETTNRRVTFEYIMLNGVNDSPENAQELADLTKKIRKLSYVNLIPYNPVTEHDQYSRSPKERVDAFYDVLKKNGVNCVVRQEHGTDIDAACGQLRSNTMKRDREKATAGTAQ
MGSDKIHHHHHHMKQKTIHIENLSIGYLGKTDVKVVADRINAGINCGELTCLLGANGVGKSTLLRTLSAFQPKLGGKIEIVGKEIDAYTDKELSTVISVVLTEKCDIRNMTVHELVGLGRSPYTDFWGTLRGEDKEVVERSIALVKIQNLAHRMVHTLSDGERQKVMIAKALAQETPVIFLDEPTAFLDFPSKVEMMQLLHRLSRQTNKTIFLSTHDLELALQIADKIWLMDKMNGVTIGTPEDLSLSGKLSSFFARKGIVFDLETGLFRVDNEYTSQIRLVGHGQKYAMVRKALQRNGILANRTVESDTYIETGDLKDGNGFILHPQEGEAVTLNSIEELLERLQAGSAERAV
MGSDKIHHHHHHMKQLPLDIIPPPPTLSNFVTGRNAELLQTLDNLLMMRKHERFVYIWGGTGCGKSHLLQGVASACKRNDMNTLYFACGERTSFANGSEADCVMVDDVDRLGADAQIGLFHLYNRIRDEGQAFLLVSGSVAPTQLKLRADLLTRLAWGLVYEVHELTDEEKMEAMKSHASSRGLALPQEVCDYLLRHERRDLTSLMAKLNALDKYSLASHRKITVPLVRELLQAAS
MGSDKIHHHHHHMKQMNVVLIGGGTGLSVLARGLREFPIDITAIVTVADNGGSTGKIRDVMDIPAPGDIRNVIAALSDSESILTQLFQYRFGENQVDGHSLGNLVIAGMTNITNDFGHAIKELSKVLNIKGQVIPSTNASVQLNAVMEDGEIVHGETNIPKTHKKIDRVFLEPSDVEPMNEAIEALEQADLIVLGPGSLYTSVISNLCVKGISEALLRTSAPKLYVSNVMTQPGETDNYDVKEHIDALTRQVGEPFIDFVICSSESYSKDVLQRYEEKNSKPVAVHKEQLKDSGIRVLTASNLVEISNEHYVRHNTKVLSKMIYELALELTSTIRFTPSDKKK
MGSDKIHHHHHHMKRQAKIEIQNALVDLMAEYPFQEISTKMICAYCNINRSTFYDYYKDKFDLLDTINSKHKEKFQFLLSALHHNFENIKQDKLKLYKFFIIIAKYIKHNEQFFKDILVTYPMKTLFIDYINLARDYYQQIMNDYSTTVTNKQLYVTYIIGGQAGVFINWLSNGCNESPEEVADILLANTIKLQIQ
MGSDKIHHHHHHMKRVQNLLVAVGLSPNYHRRTYPSGKKSLVVRFYATLTPGLEDVAAKEVESFGCKVEEIRERRGRIFFSGEKSAIPLLNHFSRTLERLNVLLLRCEVEGLDDIYAAVKGLDFSFVKGKSFAIRSLRVGEHDFTSMDIARVAGQAVIDSFMESYGERLKVNLNQPDVIIRVELVDSELFVGVDTTGDDAMHKRWWRVYNHPAHLNAAIACGMLRIADWKVDESLIDPMCGSGTIPIEAALMVRNVPNLRDFAYKKLCEWELAFEPNEVRLKLYGMEKFRKHLVGAIRNAVNAGVADTIEFRQGDATEMTGEYDVIITNPPYGLRIHRKGAIERLYHSFARAAKRCMNQNSRLVIITAEHRVFANAAEEAGLQCTHERFVKYGGLLTKIMVFMI
MGSDKIHHHHHHMKSDLELKHDVDQELLWDPALDARNVTATVLNRIVTLEGSVNSCAQKLALQKAVQRVAGSRAVVLDLVVRAPSPLRHTDEDLAAAIVSALQWQEGLPEDAIRVVVEHGCVTLTGEVDYGFQRQMAEVLVSRMRGVVGVANQIEVRIDPVAADVSKHIAEALQRRSRRESGGISVDVHDGVVRLTGVADSLLESVWPAASPGAPRACGGWSTSWSSHESRRLALHAFPSCLNQL
MGSDKIHHHHHHMKSEDNGESWSDTYFLTHGEKWHSSACNVLFSNGNVYLAMEQRCRLNEVTGWDVAGLSPTLFRACVEDNLCLASSWSRSEKFIYKEVFDGAKLDFFGIPFYDCETNKPKEIATGINNAPLGWLEANVVKFVDKDHIWHTDLKEVFHLFLRAHTGGVNYAHLFKIEIQDDQSMIPSLEHTPSGQKISYIPFPGGHLKFFIIYDELTRFYWLVSNQATDSMRRVSSLSNIKRYGLPNNERHRLQLHFSRNCVDWCFAGMVACSTNELYSRNYPSAVIKGDDLHIVCRSADEHALNPQYNNMITHHIVSNFRQLIY
MGSDKIHHHHHHMKSIKELYRIGTGPSSSHTMGPRKAAEMFLTRHPEAASFKVTLYGSLAATGKGHMTDVAIIDTLKPTAPVDIIWQPKIFLPFHPNGMNFVALDAGGNELENWTVYSVGGGALAEDNKQPSIESPEVYSMNSMTEILDWCEHTGKSYWEYVKECEDPDIWDYLKEVWDTMKESVQRGLEQEGVLPGPLNLRRKASTYYIRATGYKASLQSRGLVFAYALAVSEENASGGKIVTAPTCGSCGVMPAVLYHLAKSREFSEMRILRALATAGLIGNIVKQNASISGAEVGCQGEVGVACAMASAAANQLFGGSPAQIEYAAEMGLEHHLGMTCDPVCGLVQIPCIERNAYAAARALDANLYSSFTDGMHRVSFDKVIQVMKQTGHDLPSLYKETSEGGLAKDYKPM
MGSDKIHHHHHHMKSRLKKSHRLIRLISNIKSEPYLTVEQLVKIHRISRAQFYKDKAALAELGFEFSWDRRRRRFVISRVAYCPVENLTLSERWALLMAARQLSASGDYSLSFEVLNAARKLAAGLSDPIRETAVSLFNDLVLREGYGCRKEVMNKISMAIFEKRRIILTYKKPLDSQPEREELDPYHLFFQDRSLYVEGYACLRRDVRMFRLNRIRDIAFTPIRFSIPDDYDFGKRYRNAFSVFGGTTTQRVVVRFTAHIRPYIEETLWHHSQVVTIENGGFIRFEVQVAEPREVLWWAFRWGAGAEILEPAWLREKAKCEVEKMAGMYGRGSGSG
MGSDKIHHHHHHMKTFLESLKFPVQEVNKKSSGEKGPGRPPYWEMVFYWTRKPLVGARSVIAGALLPENVDENLFKAAVRLSSPTPHRENPQIPAEFAKYFEGKKLLDPFAGFGSIPLEGLRLGLDVTAVELLPTTYIFLKAVLEYPKKFGKSLVKDVERWGEWITEQLKNDPEIRELYDDDVAVYIGTWEIRCPHCGRWTPAIGNFWLARVKDGKGYKRLAYMKPERKGDEIEIRVIDLNEILDDISKANVDGNEIIFEGENYVKTVEEAVRDGKLKQSDVKIDGNTVIFEVPSANIESRRDQLTCLMCGNVIKYADENGNHHMKLKNGDFYVKFALRKYHEGDERFARQRLLVKVKVKDGDLIFEPATKEDSEKLWKAKEKVREMLEKGDLDVPSEAIPLYENRRITPILSAEKWYQFFNPRQLLTLIKIVRLIREVGRKVEEEKIAEGWNKERAFEYAEAVATYLSTAMLKYAYYNSIVTRWDSTWWKIGETMSTRGIAMNWNWTESPWFSSFGGMIKTLLAILRGVKYLTSALSSSQRTLADFTENSVKVLQGDATSLNLGEKFDVIVTDPPYADDVPYTELSDFYYVWLKRALSDVENGKLIPRFHKEAFFKRIGPKWVEIKTQWQEFAKKEVSTNPGRFMEDENKKEKAVQHFENLFSQAFVAMREHLKDDGVLVTYYAHTDPGSWINLIEAGWRRARLQITRAIPLTTESETSIVSRGKMSLDTSIVAVWRKQKEEKTVQISTLKEEIERKAKSSAREFIEYGYEGLDLLYGVMAAALEEVTKYREISSLKGPLTTEEILNEYVYPATIRGIVNAIAEIEGTGTLHSGTAMFYTAYKILFGNASLSANDIVLLRLATSTDPSELISSGVLKEKRSSSSKEYTLYTPDLLGKKALDTKEFQKFLHEKKLDPVEPKPKNSVDVLQLLEYYSLLGRSRVKEEIEKLRKMWAGEVEEALFIARLVSEYYAEIYIRKIDPVRRMKEEFASEIDRELEKDGFLEVVLMRRLLGYVGGAV
